The record followed here is PMC3585228, “Consequences of ChemR23 Heteromerization with the Chemokine Receptors CXCR4 and CCR7” (PLoS ONE, 2013).

One assay has as its target T1, CXCR4-hRLuc / CXCR4-EYFP (human, UniProt P61073 1-352).
T1 construct: chemokine receptor CXCR4; cDNA in pcDNA3.1, fusion at its 3' end; Two constructs, each with ONE of the two fusions: CXCR4-hRLuc (donor) and CXCR4-EYFP (acceptor); source: HEK-293T, transfected (calcium phosphate), in living cells; not shown: hRLuc (humanized Renilla luciferase), C-terminal, kept; EYFP, C-terminal, kept
As to the kind of experiment: FRET or BRET; BRET titration in HEK293T cells: constant amount of the hRLuc donor construct, increasing amounts of the EYFP acceptor construct; signal recorded 5 minutes after coelenterazine H. Conditions: partners not purified. A general note: Bioluminescence resonance energy transfer reports proximity on the nanometre scale.

The target of the next assay is T2, CCR7-hRLuc / CCR7-EYFP (human, UniProt P32248 25-378).
T2 construct: chemokine receptor CCR7; cDNA in pcDNA3.1, fusion at its 3' end; Two constructs, each with ONE of the two fusions: CCR7-hRLuc (donor) and CCR7-EYFP (acceptor); source: HEK-293T, transfected (calcium phosphate), in living cells; not shown: hRLuc (humanized Renilla luciferase), C-terminal, kept; EYFP, C-terminal, kept
T2 sequence (looked up): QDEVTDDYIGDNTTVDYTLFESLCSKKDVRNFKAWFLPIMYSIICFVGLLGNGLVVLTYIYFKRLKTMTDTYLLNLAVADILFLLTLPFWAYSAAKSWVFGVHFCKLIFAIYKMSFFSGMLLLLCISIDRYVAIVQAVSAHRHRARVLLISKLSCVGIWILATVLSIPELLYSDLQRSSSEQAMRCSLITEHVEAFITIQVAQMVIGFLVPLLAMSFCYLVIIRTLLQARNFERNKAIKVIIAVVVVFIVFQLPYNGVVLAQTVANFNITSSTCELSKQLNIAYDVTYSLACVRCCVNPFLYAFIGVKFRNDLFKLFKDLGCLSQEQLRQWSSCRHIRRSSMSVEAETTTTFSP
The assay is described as above. The following applies: partners not purified.

The target in assay [1] is T3, CCR7 on CHO-K1 cells (human, UniProt P32248 25-378).
T3 sequence (looked up): T2 sequence (looked up)
In words: cell-based or functional assay.

Assay [2] deals with T3, CCR7 on CHO-K1 cells. As to the kind of experiment: radioligand binding; competition on CHO-K1 cells co-expressing ChemR23 and CCR7; tracer 0.1 nM 125I-[145-157]-chemerin; competitors chemerin (homologous) or CCL19 (heterologous, cross-competition); same buffer, one hour, filtration. The following applies: one partner purified.
Assay [3] addresses T3, CCR7 on CHO-K1 cells. In words: radioligand binding; competition on CHO-K1 cells expressing CCR7 only (methods: membrane preparations); tracer 0.1 nM 125I-CCL19; 50 mM Hepes pH 7.4, 1 mM CaCl2, 5 mM MgCl2, 0.5% BSA; one hour; filtration. Conditions: one partner purified.
Assay [4] has as its target T3, CCR7 on CHO-K1 cells. In words: radioligand binding; competition on CHO-K1 cells co-expressing ChemR23 and CCR7; tracer 0.1 nM 125I-CCL19; competitors CCL19 (homologous) or chemerin (heterologous, cross-competition); same buffer, one hour, filtration. The following applies: one partner purified.

T1 sequence (P61073 whole entry, the tested form may be a part): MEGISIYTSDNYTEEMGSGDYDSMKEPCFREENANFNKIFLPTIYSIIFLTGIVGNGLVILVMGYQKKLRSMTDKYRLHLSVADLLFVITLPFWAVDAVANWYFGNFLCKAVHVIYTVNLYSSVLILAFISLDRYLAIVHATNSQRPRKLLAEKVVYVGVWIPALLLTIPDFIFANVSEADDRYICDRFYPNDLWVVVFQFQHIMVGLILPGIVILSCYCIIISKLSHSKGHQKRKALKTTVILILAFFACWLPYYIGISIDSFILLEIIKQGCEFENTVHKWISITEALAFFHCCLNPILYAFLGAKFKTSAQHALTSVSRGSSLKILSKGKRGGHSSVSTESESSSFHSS

B1: ChemR23-hRLuc / ChemR23-EYFP (receptor, human, UniProt Q99788 1-373, looked up)
chain: MRMEDEDYNTSISYGDEYPDYLDSIVVLEDLSPLEARVTRIFLVVVYSIVCFLGILGNGLVIIIATFKMKKTVNMVWFLNLAVADFLFNVFLPIHITYAAMDYHWVFGTAMCKISNFLLIHNMFTSVFLLTIISSDRCISVLLPVWSQNHRSVRLAYMACMVIWVLAFFLSSPSLVFRDTANLHGKISCFNNFSLSTPGSSSWPTHSQMDPVGYSRHMVVTVTRFLCGFLVPVLIITACYLTIVCKLQRNRLAKTKKPFKIIVTIIITFFLCWCPYHTLNLLELHHTAMPGSVFSLGLPLATALAIANSCMNPILYVFMGQDFKKFKVALFSRLVNALSEDTGHSSYPSHRSFTKMSSMNERTSMNERETGML
notes: ChemR23, the receptor of chemerin; cDNA in pcDNA3.1, fusion at its 3' end; Two constructs, each with ONE of the two fusions: ChemR23-hRLuc (BRET donor) and ChemR23-EYFP (BRET acceptor); source: HEK-293T, transfected (calcium phosphate), in living cells; not shown: hRLuc (humanized Renilla luciferase), C-terminal, kept; EYFP, C-terminal, kept
In the case of B1, the “BRET50, fold against the CXCR4 homomer” value with CXCR4-hRLuc / CXCR4-EYFP was found to be 2 fold. The “BRET50, fold against the CCR7 homomer” value in the assay with CCR7-hRLuc / CCR7-EYFP was 2 fold.

B2: CCL19 (unlabelled) (ligand, UniProt Q99731 22-98, looked up)
chain: GTNDAEDCCLSVTQKPIPGYIVRNFHYLLIKDGCRVPAVVFTTLRGRQLCAPPDQPWVERIIQRLQRTSAKMKRRSS
notes: chemokine CCL19, the CCR7-specific ligand
What is called IC50 is the point on the concentration scale where inhibition reaches its midpoint. High values mean lower potency, low ones higher potency. For the molecule B2, the “EC50 of calcium mobilization (aequorin assay), CHO-K1 cells expressing CCR7 only” value with CCR7 on CHO-K1 cells [1] worked out at 7.66 nM. Further, the IC50 in the assay with CCR7 on CHO-K1 cells [2] came out at 6.85 nM; with CCR7 on CHO-K1 cells [3] it was 2.42 nM; with CCR7 on CHO-K1 cells [4] it was 0.27 nM.
